Experimental findings from publication PMC5557964 are described below.

The target in the test is citrullinated fibronectin N-terminal 30 kDa fragment (treated with PAD2 or PAD4). The experiment in a line: ELISA; FN N-terminal 30 kDa fragment coated o/n on 96-well DNA-BIND plates (3 µg/cm^3, +4 °C), blocked with BSA, citrullinated on the plate by PAD2 or PAD4 (2.4 U/ml, o/n, +37 °C) or left as control; integrin αVβ3 5 µg/ml for 1 h at room temperature in Delfia assay buffer; detected with anti-αV antibody L230 and Eu-labelled anti-mouse antibody, time-resolved fluorescence; BSA wells as background. (In general: In an ELISA, binding on a coated surface is turned into a signal by an enzyme label.)

In turn, “recombinant integrin αVβ3 ectodomain (from UniProt P06756 31-992; P05106 27-718) (receptor)” gave a reduction of binding against the control FN fragment of over 50%.
